{"source": "paper PMC2864353", "about": "(Blood coagulation & fibrinolysis : an international journal …, 2010)", "binders": {"B1": {"name": "Factor VIIa (enzyme)", "chain 1": "ANAFLEELRPGSLERECKEEQCSFEEAREIFKDAERTKLFWISYSDGDQCASSPCQNGGSCKDQLQSYICFCLPAFEGRNCETHKDDQLICVNENGGCEQYCSDHTGTKRSCRCHEGYSLLADGVSCTPTVEYPCGKIPILEKRNASKPQGR", "chain 2": "IVGGKVCPKGECPWQVLLLVNGAQLCGGTLINTIWVVSAAHCFDKIKNWRNLIAVLGEHDLSEHDGDEQSRRVAQVIIPSTYVPGTTNHDIALLRLHQPVVLTDHVVPLCLPERTFSERTLAFVRFSLVSGWGQLLDRGATALELMVLNVPRLMTQDCLQQSRKVGDSPNITEYMFCAGYSDGSKDSCKGDSGGPHATHYRGTWYLTGIVSWGQGCATVGHFGVYTRVSQYIEWLQKLMRSEPRPGVLLRAPFP"}}, "assay_in_all_cases": "SPR", "key": {"[1]": {"biological_target": "soluble tissue factor (TF 1-219) (UniProt P13726 33-251)"}, "[2]": {"biological_target": "T1, recombinant tissue factor containing transmembrane spanning domain (TF 1-248), relipidated", "T1 chain": "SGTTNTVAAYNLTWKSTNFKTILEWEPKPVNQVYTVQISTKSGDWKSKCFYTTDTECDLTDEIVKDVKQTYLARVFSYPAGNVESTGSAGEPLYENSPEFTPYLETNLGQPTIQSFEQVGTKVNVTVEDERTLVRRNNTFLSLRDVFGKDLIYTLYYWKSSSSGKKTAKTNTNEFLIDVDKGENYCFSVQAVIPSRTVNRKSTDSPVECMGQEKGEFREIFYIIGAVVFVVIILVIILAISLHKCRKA"}, "[3]": {"biological_target": "T1, recombinant tissue factor containing …"}}, "note": "Like-named read-outs stand apart in the source and are kept apart here.", "data": [{"binder": "B1", "values": [{"measurement": "Kd", "setting": "[1]", "value": 11.6, "unit": "nM"}, {"measurement": "koff", "setting": "[1]", "value": 0.00592, "unit": "s⁻¹"}, {"measurement": "kon", "setting": "[1]", "value": 475000, "unit": "M⁻¹ s⁻¹"}, {"measurement": "Kd", "setting": "[2]", "value": 0.0457, "unit": "nM"}, {"measurement": "koff", "setting": "[2]", "value": 0.000234, "unit": "s⁻¹"}, {"measurement": "kon", "setting": "[2]", "value": "2.73e+06", "unit": "M⁻¹ s⁻¹"}, {"measurement": "Kd", "setting": "[3]", "value": 0.0474, "unit": "nM"}, {"measurement": "koff", "setting": "[3]", "value": 0.000233, "unit": "s⁻¹"}, {"measurement": "kon", "setting": "[3]", "value": "2.58e+06", "unit": "M⁻¹ s⁻¹"}]}]}
